Consider three molecules from patent publication US20180155451A1 (published 2018).

What all share (test): SPR (Biacore), antibody captured on chip, FcgR extracellular domain as analyte
The target in one assay is T1, FcgRIIa H (human, UniProt P12318 34-217).
T1 construct: extracellular domain; also called FcγRIIa H; FcγRIIa type H; not shown: His tag attached to the C terminus
T1 sequence (looked up): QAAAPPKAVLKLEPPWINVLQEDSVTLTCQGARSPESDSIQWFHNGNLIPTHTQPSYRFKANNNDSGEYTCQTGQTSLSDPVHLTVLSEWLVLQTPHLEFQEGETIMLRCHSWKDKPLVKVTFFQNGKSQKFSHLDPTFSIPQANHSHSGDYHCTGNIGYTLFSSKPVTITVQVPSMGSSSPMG
As for the experimental part: (§1) Specifically, H240-Kn120 (SEQ ID NO: 99) resulting from introduction of S239M into H240-Kn067 and H240-Kn126 (SEQ ID NO: 100) resulting from introduction of Y235Q into H240-Kn120 were prepared according to the method described in Reference Example 1. […] Those described above were assayed for the binding to each FcgR according to the method described in Reference Example 8.
(§2) Analysis of interaction between obj ective antibody and the FcγR was carried out using Biacore T100 (GE Healthcare), Biacore T200, Biacore A100, and Biacore 4000. HBS-EP+ (GE Healthcare) was used as the running buffer, and the measurement temperature was set to 25° C. Chips produced by immobilizing the antigen peptide by the amine coupling method to a Series S sensor Chip CM5 (GE Healthcare), chips produced by allowing preliminarily biotinylated antigen peptides to interact with and immobilize onto a Series S Sensor Chip SA (certified) (GE Healthcare), chips produced by immobilizing Protein L (ACTIGEN, BioVision) to Series S Sencor Chip CM5 (GE Healthcare), or chips produced by immobilizing Protein A/G (Thermo Scientific) to Series S Sencor Chip CM5 (GE Healthcare) were used. Antibodies of interest were captured onto these chips, and allowed to interact to each FcγR diluted with running buffer. To regenerate and repeatedly use the chip, the antibodies captured onto the chip were washed off by reacting 10 mM glycine-HCl, pH 1.5.

The next assay addresses T2, FcgRIIb (human, UniProt P31994 43-217).
T2 construct: extracellular domain; Expressed in FreeStyle293 cells and purified; used as analyte in Biacore; also called FcγRIIb; CD32B; not shown: His tag attached to the C terminus
T2 sequence (looked up): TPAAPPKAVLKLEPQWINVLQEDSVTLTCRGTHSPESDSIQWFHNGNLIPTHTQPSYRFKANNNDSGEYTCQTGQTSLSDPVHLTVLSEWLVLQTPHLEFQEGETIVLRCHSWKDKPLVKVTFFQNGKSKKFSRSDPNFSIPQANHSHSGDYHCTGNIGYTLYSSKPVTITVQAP
Here is the method: as §1, §2

A further assay addresses T3, FcgRIIIa V (human, UniProt P08637 17-208).
T3 construct: extracellular domain; also called FcγRIIIa V; not shown: His tag attached to the C terminus
Here is the method: as §1, §2

The target in another assay is T4, FcgRIIIa F (human, UniProt P08637 17-208).
T4 construct: extracellular domain; also called FcγRIIIa F; not shown: His tag attached to the C terminus
As for the experimental part:
as §1, §2

For a further assay, the target named is T5, FcgRIIa R (human, UniProt P12318 34-217).
T5 construct: extracellular domain; also called FcγRIIa R; FcγRIIa type R; not shown: His tag attached to the C terminus
T5 sequence (looked up): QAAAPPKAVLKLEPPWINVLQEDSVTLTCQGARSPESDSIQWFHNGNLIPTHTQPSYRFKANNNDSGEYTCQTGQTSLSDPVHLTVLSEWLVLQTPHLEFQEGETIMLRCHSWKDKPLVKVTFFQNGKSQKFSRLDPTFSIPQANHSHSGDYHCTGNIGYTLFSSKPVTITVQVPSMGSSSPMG
As for the experimental part:
as §1, §2

The target in a further assay is T6, FcgRIa (human, UniProt P12314 16-292).
T6 construct: extracellular domain; Expressed in FreeStyle293 cells and purified; used as analyte in Biacore; also called FcγRIa; FcγRI; not shown: His tag attached to the C terminus
Here is the method:
as §1, §2

T4 sequence (P08637 17-208): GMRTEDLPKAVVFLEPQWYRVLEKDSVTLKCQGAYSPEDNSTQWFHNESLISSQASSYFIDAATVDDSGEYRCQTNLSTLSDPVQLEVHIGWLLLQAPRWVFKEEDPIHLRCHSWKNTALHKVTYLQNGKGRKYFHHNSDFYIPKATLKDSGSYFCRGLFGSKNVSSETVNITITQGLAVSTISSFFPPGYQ
T6 sequence (P12314 16-292): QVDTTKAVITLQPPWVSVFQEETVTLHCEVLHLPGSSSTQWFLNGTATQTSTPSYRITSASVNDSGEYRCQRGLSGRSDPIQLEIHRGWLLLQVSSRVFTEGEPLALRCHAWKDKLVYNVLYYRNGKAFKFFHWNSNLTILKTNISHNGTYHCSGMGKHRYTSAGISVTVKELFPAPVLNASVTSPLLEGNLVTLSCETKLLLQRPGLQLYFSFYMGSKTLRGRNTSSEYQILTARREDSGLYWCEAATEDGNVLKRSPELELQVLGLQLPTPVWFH
T3 sequence (P08637 17-208 F176V limits assumed): as the sequence (P08637 17-208) above, with F160V counted along it

B1: H240-Kn120/H240-Hl068/L73-k0 (antibody, human IgG1, kappa)
heavy 1: QDQLVQSGAEVKKPGASVKVSCKASGFNIKDTYIQWVRQAPGQGLEWMGRIDPLRKQTKYREKFEGRVTITADTSTNTAYMELSSLRSEDTAVYYCVRSGREFDYWGQGTLVTVSSASTKGPSVFPLAPSSKSTSGGTAALGCLVKDYFPEPVTVSWNSGALTSGVHTFPAVLQSSGLYSLSSVVTVPSSSLGTQTYICNVNHKPSNTKVDKKVEPKSCDKTHTCPPCPAPEYYWGPMVFLFPPKPKDTLMISRTPEVTCVVVDVSDEDPEVKFNWYVDGVEVHNAKTKPREEQYNATYRVVSVLTVLHQDWLNGKEYKCKVSNKDLPAPIEKTISKAKGQPREPQVCTLPPSRDELTKNQVSLWCLVKGFYPSDIAVEWESNGQPENNYKTTPPVLDSDGSFFLYSKLTVDKSRWQQGNVFSCSVMHEALHNHYTQKSLSLSP
heavy 2: QDQLVQSGAEVKKPGASVKVSCKASGFNIKDTYIQWVRQAPGQGLEWMGRIDPLRKQTKYREKFEGRVTITADTSTNTAYMELSSLRSEDTAVYYCVRSGREFDYWGQGTLVTVSSASTKGPSVFPLAPSSKSTSGGTAALGCLVKDYFPEPVTVSWNSGALTSGVHTFPAVLQSSGLYSLSSVVTVPSSSLGTQTYICNVNHKPSNTKVDKKVEPKSCDKTHTCPPCPAPELLGGPSVFLFPPKPKDTLMISRTPEVTCVVVDVSHEEPEVKFNWYVDGVEVHNAKTKPREEQYNSTYRVVSVLTVLHQDWLNGKEYKCKVSNDALPKPIEETISKAKGQPREPQVYTLPPSRCELTKNQVSLSCAVKGFYPSDIAVEWESNGQPENNYKTTPPVLDSDGSFFLVSKLTVDKSRWQQGNVFSCSVMHEALHNHYTQKSLSLSP
light: DIQMTQSPSSLSASVGDRVTITCRASQDIHKYIAWYQQKPGQAPRLLIQYTSTLQPGVPSRFSGSGSGTDYTFTISSLQPEDIATYYCLQYEQLRTFGGGTKVEIKRTVAAPSVFIFPPSDEQLKSGTASVVCLLNNFYPREAKVQWKVDNALQSGNSQESVTEQDSKDSTYSLSSTLTLSKADYEKHKVYACEVTHQGLSSPVTKSFNRGEC
notes: Heterodimerized anti-EREG IgG1: Kn120 is H240-Kn067 with S239M
For B1, the Kd was determined as 59 nM with FcgRIIa H; 150 nM with FcgRIIb; 0.66 nM with FcgRIIIa V; 2.4 nM with FcgRIIIa F; 17 nM with FcgRIIa R; 0.37 nM with FcgRIa.

B2: H240-Kn037/H240-Hl036/L73-k0 (antibody, human IgG1, kappa)
heavy 1: QDQLVQSGAEVKKPGASVKVSCKASGFNIKDTYIQWVRQAPGQGLEWMGRIDPLRKQTKYREKFEGRVTITADTSTNTAYMELSSLRSEDTAVYYCVRSGREFDYWGQGTLVTVSSASTKGPSVFPLAPSSKSTSGGTAALGCLVKDYFPEPVTVSWNSGALTSGVHTFPAVLQSSGLYSLSSVVTVPSSSLGTQTYICNVNHKPSNTKVDKKVEPKSCDKTHTCPPCPAPELLAGPDVFLFPPKPKDTLMISRTPEVTCVVVDVSHEDPEVKFNWYVDGVEVHNAKTKPREEQYNSTYRVVSVLTVLHQDWLNGKEYKCKVSNKALPAPEEKTISKAKGQPREPQVCTLPPSRDELTKNQVSLWCLVKGFYPSDIAVEWESNGQPENNYKTTPPVLDSDGSFFLYSKLTVDKSRWQQGNVFSCSVMHEALHNHYTQKSLSLSP
heavy 2: QDQLVQSGAEVKKPGASVKVSCKASGFNIKDTYIQWVRQAPGQGLEWMGRIDPLRKQTKYREKFEGRVTITADTSTNTAYMELSSLRSEDTAVYYCVRSGREFDYWGQGTLVTVSSASTKGPSVFPLAPSSKSTSGGTAALGCLVKDYFPEPVTVSWNSGALTSGVHTFPAVLQSSGLYSLSSVVTVPSSSLGTQTYICNVNHKPSNTKVDKKVEPKSCDKTHTCPPCPAPELLAGPDVFLFPPKPKDTLMISRTPEVTCVVVDVSHEDPEVKFNWYVDGVEVHNAKTKPREEQYNSTYRVVSVLTVLHQDWLNGKEYKCKVSNKALPAPEEKTISKAKGQPREPQVYTLPPSRCELTKNQVSLSCAVKGFYPSDIAVEWESNGQPENNYKTTPPVLDSDGSFFLVSKLTVDKSRWQQGNVFSCSVMHEALHNHYTQKSLSLSP
light: DIQMTQSPSSLSASVGDRVTITCRASQDIHKYIAWYQQKPGQAPRLLIQYTSTLQPGVPSRFSGSGSGTDYTFTISSLQPEDIATYYCLQYEQLRTFGGGTKVEIKRTVAAPSVFIFPPSDEQLKSGTASVVCLLNNFYPREAKVQWKVDNALQSGNSQESVTEQDSKDSTYSLSSTLTLSKADYEKHKVYACEVTHQGLSSPVTKSFNRGEC
notes: this is a derivation
B2: the Kd with FcgRIIa H was determined as 46 nM; in the assay with FcgRIIb it was 380 nM; with FcgRIIIa V it was 6.8 nM; in the assay with FcgRIIIa F, 21 nM; with FcgRIIa R it was 29 nM; in the assay with FcgRIa it was 0.098 nM.

B3: H240-Kn126/H240-Hl068/L73-k0 (antibody, human IgG1, kappa)
heavy 1: QDQLVQSGAEVKKPGASVKVSCKASGFNIKDTYIQWVRQAPGQGLEWMGRIDPLRKQTKYREKFEGRVTITADTSTNTAYMELSSLRSEDTAVYYCVRSGREFDYWGQGTLVTVSSASTKGPSVFPLAPSSKSTSGGTAALGCLVKDYFPEPVTVSWNSGALTSGVHTFPAVLQSSGLYSLSSVVTVPSSSLGTQTYICNVNHKPSNTKVDKKVEPKSCDKTHTCPPCPAPEYQWGPMVFLFPPKPKDTLMISRTPEVTCVVVDVSDEDPEVKFNWYVDGVEVHNAKTKPREEQYNATYRVVSVLTVLHQDWLNGKEYKCKVSNKDLPAPIEKTISKAKGQPREPQVCTLPPSRDELTKNQVSLWCLVKGFYPSDIAVEWESNGQPENNYKTTPPVLDSDGSFFLYSKLTVDKSRWQQGNVFSCSVMHEALHNHYTQKSLSLSP
heavy 2: QDQLVQSGAEVKKPGASVKVSCKASGFNIKDTYIQWVRQAPGQGLEWMGRIDPLRKQTKYREKFEGRVTITADTSTNTAYMELSSLRSEDTAVYYCVRSGREFDYWGQGTLVTVSSASTKGPSVFPLAPSSKSTSGGTAALGCLVKDYFPEPVTVSWNSGALTSGVHTFPAVLQSSGLYSLSSVVTVPSSSLGTQTYICNVNHKPSNTKVDKKVEPKSCDKTHTCPPCPAPELLGGPSVFLFPPKPKDTLMISRTPEVTCVVVDVSHEEPEVKFNWYVDGVEVHNAKTKPREEQYNSTYRVVSVLTVLHQDWLNGKEYKCKVSNDALPKPIEETISKAKGQPREPQVYTLPPSRCELTKNQVSLSCAVKGFYPSDIAVEWESNGQPENNYKTTPPVLDSDGSFFLVSKLTVDKSRWQQGNVFSCSVMHEALHNHYTQKSLSLSP
light: DIQMTQSPSSLSASVGDRVTITCRASQDIHKYIAWYQQKPGQAPRLLIQYTSTLQPGVPSRFSGSGSGTDYTFTISSLQPEDIATYYCLQYEQLRTFGGGTKVEIKRTVAAPSVFIFPPSDEQLKSGTASVVCLLNNFYPREAKVQWKVDNALQSGNSQESVTEQDSKDSTYSLSSTLTLSKADYEKHKVYACEVTHQGLSSPVTKSFNRGEC
notes: Heterodimerized anti-EREG IgG1: Kn126 is H240-Kn120 with Y235Q
As to B3, the equilibrium dissociation constant (Kd) was 170 nM with FcgRIIa H; 520 nM with FcgRIIb; 0.64 nM with FcgRIIIa V; 3.7 nM with FcgRIIIa F; 76 nM with FcgRIIa R; 0.4 nM with FcgRIa.
